Data reported in patent US20080124758A1, “Transmembrane domain removed recombinant human tyrosinase and method of producing the same” (Chung-Ang University Industry-Academy Cooperation Foundation, priority 2006, published 2008).
Read-outs that look alike come from different tables or passages of the source. Values belong to the molecule of their own block, whether it stands above or below them.

How the values were obtained:
[1] = Tyrosine hydroxylase activity of human tyrosinase (method of Husain et al., fluorescence of L-dopa formed); format: biochemical; settings: for Increase of specific tyrosine hydroxylase activity of the His-bind purified enzyme compared to the crude extract: His-bind resin purified vs crude extract
Method: (§1) The measuring of the tyrosine hydroxylase activity was conducted according to a method of Husain et al. (Husain et al., J. Invest. Dermatol. 78: 243-252, 1982). Hydroxylation was conducted within an L-Dopa concentration range of 0-30 mM. A standard curve with respect to L-dopa was obtained. Using the standard curve, the amount of L-dopa produced after the reaction was determined. The reaction solution was prepared by adding 100 μM of L-tyrosine, L-dopa of each concentration, 4 mM of ascorbic acid and 100 μl of human tyrosinase into 50 mM Potassium phosphate buffer solution (pH 6.8) to obtain 2.5 ml of the solution. After that, the reaction was conducted at 37° C. for 3 hours. At this time, a reaction was conducted without adding the purified human tyrosinase as a control. The product was subjected to excitation at 360 nm and then was subjected to an emission at 490 nm by a method of Ram et al. (Ram et al., J. Biol. Chem. 267: 23707-23712, 1992). The intensity of the emission was measured. The measured value was converted into the concentration of L-dopa and the enzyme activity was measured. The specific activity with respect to the tyrosine hydroxylase activity of the purified human tyrosinase of the present invention was determined as the created mol number (mmol) of the L-dopa with respect to the amount of the enzyme (μg) per hour.

[2] = Dopa oxidase activity of human tyrosinase (method of Fling et al., dopachrome at 475 nm); format: biochemical
Method: (§2) The measurement of the dopa oxidase activity was conducted by the method of Fling et al. (Fling et al. J. Biol. Chem. 238: 2045-2053, 1963). The transformation of L-dopa which was the substrate of dopa oxidase into a brown product of dopachrome by tyrosinase was measured at 475 nm. […] 3 mM of L-dopa was added into 50 mM of tris-HCl buffer solution (pH 7.5) and incubated at 370 for 10 minutes. Then, 30 μl of human tyrosinase was added and the absorbance change was measured at 475 nm for 3 minutes. At this time, the unit of the activity of the enzyme was defined as follows. When 1 μmole of dopachrome was produced for 1 minute, this activity was defined as 1 unit (μmole/min). Specific activity was defined as 1 unit per 1 mg enzyme.

[3] = read-out: Km value to L-tyrosine, cited from earlier work
[4] = literature value, Spritz et al. 1997; cited from earlier work
[5] = Influence of L-tyrosine concentration, Km by Lineweaver-Burk plot; format: biochemical
Method: as §1
(§3) The concentration of the substrate, L-tyrosine was given in a range of 0.01-1 mM, and the influence of the substrate concentration onto the recombinant human tyrosinase prepared by example 2 was evaluated. It is conducted by the same method of measuring the tyrosine hydroxylase activity explained in the experiment 1. The Km value of the recombinant human tyrosinase according to the present invention was calculated by the Lineweaver-Burk Plot (Lineweaver et al., J. Am, Chem. Soc., 56; 658-666, 1934).

[6] = Influence of L-dopa concentration, Km by Lineweaver-Burk plot; format: biochemical; settings: L-dopa 0.05-5 mM
Method: as §2, with “Specific activity was defined as 1 unit per 1 mg enzyme.” left out
as §3, with “It is conducted by the same method of measuring the tyrosine hydroxylase activity explained in the experiment 1.” left out
The concentration of L-dopa, which is another substrate of the human tyrosinase was given in a range of 0.05-5 mM and the influence of the substrate concentration with respect to the recombinant human tyrosinase prepared in example 2 was examined. The dopa oxidase activity is measured by the same method of experiment 2. […]

[7] = purification step: DEAE-Sephacel chromatography
[8] = purification step: crude extract
[9] = purification step: His.bind resin chromatography

Total activity (dopa oxidase) [2, 7]: 4460 units | Total activity (dopa oxidase) [2, 9]: 1922 units | Total activity (dopa oxidase) [2, 8]: 5700 units
B1: Recombinant human tyrosinase of comparative example 2 (pET-hTyr): Recombinant human tyrosinase produced in E. coli with pET-hTyr vector by the method of Korean Patent Application No. 2002-0073728 (protein, UniProt P14679 19-529, looked up)
Tyrosinase: HFPRACVSSKNLMEKECCPPWSGDRSPCGQLSGRGSCQNILLSNAPLGPQFPFTGVDDRESWPSVFYNRTCQCSGNFMGFNCGNCKFGFWGPNCTERRLLVRRNIFDLSAPEKDKFFAYLTLAKHTISSDYVIPIGTYGQMKNGSTPMFNDINIYDLFVWMHYYVSMDALLGGSEIWRDIDFAHEAPAFLPWHRLFLLRWEQEIQKLTGDENFTIPYWDWRDAEKCDICTDEYMGGQHPTNPNLLSPASFFSSWQIVCSRLEEYNSHQSLCNGTPEGPLRRNPGNHDKSRTPRLPSSADVEFCLSLTQYESGSMDKAANFSFRNTLEGFASPLTGIADASQSSMHNALHIYMNGTMSQVQGSANDPIFLLHHAFVDSIFEQWLRRHRPLQEVYPEANAPIGHNRESYMVPFIPLYRNGDFFISSKDLGYDYSYLQDSDPDSFQDYIKSYLEQASRIWSWLLGAAMVGAVLTALLAGLVSLLCRHKRKQLPEEKQPLLMEKEDYHSLYQSHL
Increase of specific tyrosine hydroxylase activity of the His-bind purified enzyme compared to the crude extract [1]: about 49 times | Specific activity (tyrosine hydroxylase) [1, 7]: 11.0 ± 0.12 µmol/mg/h | Specific activity (tyrosine hydroxylase) ([1]; purification step: His.bind resin chromatography (finally purified)): 88.0 ± 1.50 µmol/mg/h | Specific activity (tyrosine hydroxylase) [1, 8]: 1.8 ± 0.05 µmol/mg/h | Purification degree (dopa oxidase specific activity relative to crude extract) [2, 7]: 5 fold | Specific activity (dopa oxidase) [2, 7]: 69.7 units/mg | Purification degree (dopa oxidase specific activity relative to crude extract) [2, 9]: 49 fold | Specific activity (dopa oxidase) [2, 9]: 699 units/mg | Purification degree (dopa oxidase specific activity relative to crude extract) [2, 8]: 1.0 fold | Specific activity (dopa oxidase) [2, 8]: 14.3 units/mg | Km ([3]; value from previous filing): 2.34 µM

Total activity (dopa oxidase) [2, 9]: 2977 units | Total activity (dopa oxidase) [2, 8]: 6200 units | Affinity onto the substrate L-tyrosine, times higher [5]: ≥ 100 times
B4: Recombinant human tyrosinase of example 2 (pET-hTyrosinase(TM-)): Human tyrosinase with C-terminal transmembrane domain (55 amino acids) removed, SEQ ID NO: 2, expressed in E. coli with six … (protein)
chain: MHFPRACVSSKNLMEKECCPPWSGDRSPCGQLSGRGSCQNILLSNAPLGPQFPFTGVDDRESWPSVFYNRTCQCSGNFMGFNCGNCKFGFWGPNCTERRLLVRRNIFDLSAPEKDKFFAYLTLAKHTISSDYVIPIGTYGQMKNGSTPMFNDINIYDLFVWMHYYVSMDALLGGSEIWRDIDFAHEAPAFLPWHRLFLLRWEQEIQKLTGDENFTIPYWDWRDAEKCDICTDEYMGGQHPTNPNLLSPASFFSSWQIVCSRLEEYNSHQSLCNGTPEGPLRRNPGNHDKSRTPRLPSSADVEFCLSLTQYESGSMDKAANFSFRNTLEGFASPLTGIADASQSSMHNALHIYMNGTMSQVQGSANDPIFLLHHAFVDSIFEQWLRRHRPLQEVYPEANAPIGHNRESYMVPFIPLYRNGDFFISSKDLGYDYSYLQDSDPDSFQDYIKSYLEQASRI
modifications: C-terminal His6 tag; Human tyrosinase
Increase of specific tyrosine hydroxylase activity of the His-bind purified enzyme compared to the crude extract [1]: about 52 times | Specific activity (tyrosine hydroxylase) ([1]; purification step: His.bind resin chromatography (finally purified), listed as Recombinant human tyrosinase of example 2 (pET-hTyrosinase(TM-))): 108.3 ± 2.10 µmol/mg/h | Specific activity (tyrosine hydroxylase) ([1]; purification step: His.bind resin chromatography (finally purified), listed as recombinant human tyrosinase): 108.3 ± 2.10 µmol/mg/h | Specific activity (tyrosine hydroxylase) [1, 8]: 2.1 ± 0.05 µmol/mg/h | Purification degree (dopa oxidase specific activity relative to crude extract) [2, 9]: 46 fold | Specific activity (dopa oxidase) [2, 9]: 807 units/mg | Purification degree (dopa oxidase specific activity relative to crude extract) [2, 8]: 1.0 fold | Specific activity (dopa oxidase) [2, 8]: 17.7 units/mg | Specific dopa oxidase activity, times higher than recombinant human tyrosinase of comparative example 1 ([2]; vs Korean Patent Application No. 2001-0057379 (comparative example 1)): about 31 times | Specific dopa oxidase activity, times higher than recombinant human tyrosinase of comparative example 2 ([2]; vs Korean Patent Application No. 2002-0073728 (comparative example 2)): about 1.2 times | Km ([5]; L-tyrosine 0.01-1 mM, Lineweaver-Burk plot): 1.32 µM | Km to L-tyrosine, times lower than Km of earlier tyrosinases ([5]; at the most, vs 0.17 mM, 2.34 μM and 0.2 mM): about 130 times | Km [6]: 340 µM

Continued, molecule first:

B2: Recombinant human tyrosinase of comparative example 1 (pHis-hTyr): Recombinant human tyrosinase produced in E. coli with pHis-hTyr vector by the method of Korean Patent Application No. 2001-0057379 (protein, UniProt P14679 19-529, looked up)
Tyrosinase: B1 Tyrosinase
modifications: His tag
Purification degree (dopa oxidase specific activity relative to crude extract) [2, 7]: 3.5 fold | Specific activity (dopa oxidase) [2, 7]: 1.4 units/mg | Total activity (dopa oxidase) [2, 7]: 64 units | Purification degree (dopa oxidase specific activity relative to crude extract) [2, 9]: 65.0 fold | Specific activity (dopa oxidase) [2, 9]: 26.0 units/mg | Total activity (dopa oxidase) [2, 9]: 26 units | Purification degree (dopa oxidase specific activity relative to crude extract) [2, 8]: 1.0 fold | Specific activity (dopa oxidase) [2, 8]: 0.4 units/mg | Total activity (dopa oxidase) [2, 8]: 136 units | Km ([3]; value from previous filing or literature): 170 µM

B3: purified tyrosinase from human HeLa cell: Tyrosinase purified from human HeLa cell (Spritz et al., 1997) (protein, UniProt P14679 19-529, looked up)
Tyrosinase: B1 Tyrosinase
Specific activity with respect to tyrosine hydroxylase activity [4]: 22.3±0.01 μmol/1 g/h
